Target: MC3R-RlucII (human, UniProt P41968 1-323)
Assay: cell-based or functional assay

MC3R-RlucII, sequence (P41968 whole entry): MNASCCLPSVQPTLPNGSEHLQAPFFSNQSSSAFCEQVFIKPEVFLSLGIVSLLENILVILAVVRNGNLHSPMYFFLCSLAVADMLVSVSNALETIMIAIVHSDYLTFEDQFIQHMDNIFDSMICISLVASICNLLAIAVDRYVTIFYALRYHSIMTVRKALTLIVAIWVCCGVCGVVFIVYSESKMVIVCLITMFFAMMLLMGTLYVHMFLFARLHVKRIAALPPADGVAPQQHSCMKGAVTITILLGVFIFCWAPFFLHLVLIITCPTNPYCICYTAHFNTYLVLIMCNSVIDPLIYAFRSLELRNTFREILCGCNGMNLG

NDP-αMSH-stimulated cAMP production (GloSensor, area under the curve) in HEK293 cells cotransfected with GPR83 and MC3R (1:1 ratio), against MC3R alone: 43%
B1: GPR83-Venus (receptor, human, UniProt Q9NYM4-1 17-423, looked up)
chain: TEPHEGRADEQSAEAALAVPNASHFFSWNNYTFSDWQNFVGRRRYGAESQNPTVKALLIVAYSFIIVFSLFGNVLVCHVIFKNQRMHSATSLFIVNLAVADIMITLLNTPFTLVRFVNSTWIFGKGMCHVSRFAQYCSLHVSALTLTAIAVDRHQVIMHPLKPRISITKGVIYIAVIWTMATFFSLPHAICQKLFTFKYSEDIVRSLCLPDFPEPADLFWKYLDLATFILLYILPLLIISVAYARVAKKLWLCNMIGDVTTEQYFALRRKKKKTIKMLMLVVVLFALCWFPLNCYVLLLSSKVIRTNNALYFAFHWFAMSSTCYNPFIYCWLNENFRIELKALLSMCQRPPKPQEDRPPSPVPSFRVAWTEKNDGQRAPLANNLLPTSQLQSGKTDLSSVEPIVTMS
